US20030091983A1

Molecular target: synthetic HA 11 A-beta (1-40) peptide (human)
Assay: sandwich ELISA, anti-HA 11 capture, detection with position 1 or position 40 antibodies

Work on mAB anti-HA 11 (BABCO) (antibody) yielded a peptide concentration at which the ELISA signal approached saturation of 10 ng/mL.
